From PMC6648325
Several values for one entry are separate records, joined by “and”; a condition that tells them apart may be missing. Equal entries are not always repeated.

T1: Cys106-oxidized DJ-1 recombinant protein (human), Q99497
T1 chain: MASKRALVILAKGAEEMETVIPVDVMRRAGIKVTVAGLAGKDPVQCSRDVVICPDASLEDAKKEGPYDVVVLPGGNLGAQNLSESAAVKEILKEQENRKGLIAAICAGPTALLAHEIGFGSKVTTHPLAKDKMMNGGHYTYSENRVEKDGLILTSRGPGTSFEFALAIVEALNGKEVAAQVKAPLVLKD

T2: DJ-1 recombinant protein (human), Q99497
T2 chain: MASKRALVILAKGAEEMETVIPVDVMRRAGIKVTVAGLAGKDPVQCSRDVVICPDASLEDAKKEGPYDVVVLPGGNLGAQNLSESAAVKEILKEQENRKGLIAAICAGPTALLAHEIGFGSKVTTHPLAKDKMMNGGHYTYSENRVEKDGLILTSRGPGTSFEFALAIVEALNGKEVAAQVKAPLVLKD


Key:
Conditions in all cases: remark: other sources report otherwise
[1] = molecular target: T1, Cys106-oxidized DJ-1 recombinant …; assay: high-speed atomic force microscopy
[2] = molecular target: T1, Cys106-oxidized DJ-1 recombinant …; assay: SDS-PAGE of HMW bands
[3] = molecular target: T1, Cys106-oxidized DJ-1 recombinant …; assay: SEC
[4] = molecular target: T2, DJ-1 recombinant protein (human), Q99497; assay: high-speed atomic force microscopy
[5] = molecular target: T2, DJ-1 recombinant protein (human), Q99497; assay: SEC

Binder | stoichiometry N [1] | stoichiometry N [2] | stoichiometry N [3] | stoichiometry N [4] | stoichiometry N [5]
Cys106-oxidized DJ-1 recombinant protein, Q99497 1-189 (natural protein) MASKRALVILAKGAEEMETVIPVDVMRRAGIKVTVAGLAGKDPVQCSRDVVICPDASLEDAKKEGPYDVVVLPGGNLGAQNLSESAAVKEILKEQENRKGLIAAICAGPTALLAHEIGFGSKVTTHPLAKDKMMNGGHYTYSENRVEKDGLILTSRGPGTSFEFALAIVEALNGKEVAAQVKAPLVLKD | 4 and 6 | 2 and 4 | 2 |  | 
DJ-1 recombinant protein, Q99497 1-189 (natural protein) MASKRALVILAKGAEEMETVIPVDVMRRAGIKVTVAGLAGKDPVQCSRDVVICPDASLEDAKKEGPYDVVVLPGGNLGAQNLSESAAVKEILKEQENRKGLIAAICAGPTALLAHEIGFGSKVTTHPLAKDKMMNGGHYTYSENRVEKDGLILTSRGPGTSFEFALAIVEALNGKEVAAQVKAPLVLKD |  |  |  | 2 | 2
